Laboratory results reported in PMC3787081, “The Heteromultimeric Debranching Enzyme Involved in Starch Synthesis in Arabidopsis Requires Both Isoamylase1 and Isoamylase2 Subunits for Complex Stability and Activity” (PLoS ONE, 2013).

Biological target: T1, ISA2-TAP (ISA2 with a C-terminal tandem affinity purification tag) (Arabidopsis, UniProt Q8L735 71-882)
T1 construct: Isoamylase 2 (ISA2) of Arabidopsis thaliana; the chloroplast transit peptide is probably removed in the plant (surmised); also called TAP-tagged ISA2; ISA2-TAP tagged protein; source: Arabidopsis isa2-1 plants transformed with 35S::ISA2-TAP, leaf extract
T1 sequence (looked up): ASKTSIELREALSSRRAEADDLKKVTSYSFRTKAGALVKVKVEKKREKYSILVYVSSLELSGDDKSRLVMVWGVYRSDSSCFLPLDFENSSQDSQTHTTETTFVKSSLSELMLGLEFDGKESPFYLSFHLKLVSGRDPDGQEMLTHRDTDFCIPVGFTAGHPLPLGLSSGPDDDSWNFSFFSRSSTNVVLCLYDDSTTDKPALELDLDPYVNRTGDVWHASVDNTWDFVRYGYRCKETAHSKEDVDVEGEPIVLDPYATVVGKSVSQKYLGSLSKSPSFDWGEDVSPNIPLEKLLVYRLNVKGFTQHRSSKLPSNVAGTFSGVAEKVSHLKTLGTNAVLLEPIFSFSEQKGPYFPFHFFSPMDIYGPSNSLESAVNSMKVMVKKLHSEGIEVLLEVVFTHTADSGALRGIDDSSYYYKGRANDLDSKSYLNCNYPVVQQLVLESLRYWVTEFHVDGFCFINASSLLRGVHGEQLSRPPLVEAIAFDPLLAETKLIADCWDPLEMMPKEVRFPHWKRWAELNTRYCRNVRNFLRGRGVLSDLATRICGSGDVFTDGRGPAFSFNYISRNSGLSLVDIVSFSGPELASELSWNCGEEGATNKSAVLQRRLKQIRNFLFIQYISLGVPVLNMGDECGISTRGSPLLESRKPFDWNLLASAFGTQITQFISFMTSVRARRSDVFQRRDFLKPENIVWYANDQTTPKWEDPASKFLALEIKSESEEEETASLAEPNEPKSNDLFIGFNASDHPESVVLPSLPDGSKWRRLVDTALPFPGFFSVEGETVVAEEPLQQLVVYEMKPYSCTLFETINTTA
Assay: affinity purification with mass spectrometry; tandem affinity purification of ISA2-TAP from leaf extracts (IgG-Sepharose, TEV elution, Calmodulin Sepharose with 2 mM CaCl2, EGTA elution); SDS-PAGE, silver stain, in-gel tryptic digestion, LC-MS/MS; wild-type extracts as control
Details: partners not purified

stoichiometry N: 1
B1: Isoamylase1 (ISA1), Arabidopsis, endogenous (enzyme, UniProt O04196 44-783, looked up)
chain: AKDRRSNEAENIAVVEKPLKSDRFFISDGLPSPFGPTVRDDGVNFSVYSTNSVSATICLISLSDLRQNKVTEEIQLDPSRNRTGHVWHVFLRGDFKDMLYGYRFDGKFSPEEGHYYDSSNILLDPYAKAIISRDEFGVLGPDDNCWPQMACMVPTREEEFDWEGDMHLKLPQKDLVIYEMHVRGFTRHESSKIEFPGTYQGVAEKLDHLKELGINCIELMPCHEFNELEYYSYNTILGDHRVNFWGYSTIGFFSPMIRYASASSNNFAGRAINEFKILVKEAHKRGIEVIMDVVLNHTAEGNEKGPIFSFRGVDNSVYYMLAPKGEFYNYSGCGNTFNCNHPVVRQFILDCLRYWVTEMHVDGFRFDLGSIMSRSSSLWDAANVYGADVEGDLLTTGTPISCPPVIDMISNDPILRGVKLIAEAWDAGGLYQVGMFPHWGIWSEWNGKFRDVVRQFIKGTDGFSGAFAECLCGSPNLYQGGRKPWHSINFICAHDGFTLADLVTYNNKNNLANGEENNDGENHNYSWNCGEEGDFASISVKRLRKRQMRNFFVSLMVSQGVPMIYMGDEYGHTKGGNNNTYCHDNYMNYFRWDKKEEAHSDFFRFCRILIKFRDECESLGLNDFPTAKRLQWHGLAPEIPNWSETSRFVAFSLVDSVKKEIYVAFNTSHLATLVSLPNRPGYRWEPFVDTSKPSPYDCITPDLPERETAMKQYRHFLDANVYPMLSYSSIILLLSPIKDP
notes: Isoamylase 1 (ISA1) of Arabidopsis thaliana, endogenous protein in soluble leaf extracts; Chloroplast protein; also called AtISA1; source: endogenous, Arabidopsis leaf extracts (wild type and ISA2-TAP plants)
